This passage reports IC50, TZM-bl neutralization of SHIVAD8EO results from patent US12338277.

The experiment deals with SHIVAD8EO envelope on pseudotyped virus (SHIV (HIV-1 AD8-derived env)). The experiment in a line: cell-based or functional assay.

The substance 3BNC117 (antibody) returned an IC50, TZM-bl neutralization of SHIVAD8EO of 0.14 µg/mL.
